Measurements as given in PMC3400562 (2012).
Where a chain is given by its changes, count along the chain named.

B1: 2F5 variant r4W3 (antibody, V domains shown)
VH: RITLKESGPPLVKPTQTLTLTCSFSGFSLSDFGVGVGWIRQPPGKALEWLAIIYSDDDKRYSPSLNTRLTITKDTSKNQVVLVMTRVSPVDTATYFCAHRRGPWFGWWRGPVNAMDVWGQGITVTISS
VL: ALQLTQSPSSLSASVGDRITITCRASQGVTSALAWYRQKPGSPPQLLIYDASSLESGVPSRFSGSGSGTEFTLTISTLRPEDFATYYCQQLHFYPHTFGGGTRVDVR
B2: 2F5 variant e4W (antibody, V domains shown)
VH: RITLKESGPPLVKPTQTLTLTCSFSGFSLSDFGVGVGWIRQPPGKALEWLAIIYSDDDKRYSPSLNTRLTITKDTSKNQVVLVMTRVSPVDTATYFCAHRRGPTTGGLFGWGGPIARGPVNAMDVWGQGITVTISS
VL: B1 VL
B3: 2F5 variant e2W (antibody, V domains shown)
VH: RITLKESGPPLVKPTQTLTLTCSFSGFSLSDFGVGVGWIRQPPGKALEWLAIIYSDDDKRYSPSLNTRLTITKDTSKNQVVLVMTRVSPVDTATYFCAHRRGPTTGLFGWGPIARGPVNAMDVWGQGITVTISS
VL: B1 VL
B4: 2F5 variant r4W2a (antibody, V domains shown)
VH: B1 VH with W104L
VL: B1 VL
B5: 2F5 variant r4W2c (antibody, V domains shown)
VH: B1 VH with W108A
VL: B1 VL
B6: 2F5 variant r4W (antibody, V domains shown)
VH: B1 VH with W104L, W108A
VL: B1 VL
B7: 2F5 variant r4W2b (antibody, V domains shown)
VH: B1 VH with W104L, G106W, W108A
VL: B1 VL
B8: 2F5 variant r4WY (antibody, V domains shown)
VH: B1 VH with W104L, W108Y
VL: B1 VL
B9: 2F5 variant r4WY2 (antibody, V domains shown)
VH: B1 VH with W104Y, W108Y
VL: B1 VL
B10: 2F5 variant r2W (antibody, V domains shown)
VH: RITLKESGPPLVKPTQTLTLTCSFSGFSLSDFGVGVGWIRQPPGKALEWLAIIYSDDDKRYSPSLNTRLTITKDTSKNQVVLVMTRVSPVDTATYFCAHRRGPTLFGWIARGPVNAMDVWGQGITVTISS
VL: B1 VL
B11: 2F5 variant r6W (antibody, V domains shown)
VH: RITLKESGPPLVKPTQTLTLTCSFSGFSLSDFGVGVGWIRQPPGKALEWLAIIYSDDDKRYSPSLNTRLTITKDTSKNQVVLVMTRVSPVDTATYFCAHRRGLFGWRGPVNAMDVWGQGITVTISS
VL: B1 VL

These binders were tested against wt MPER peptide (HIV-1).

| Binder | Kd |
| --- | --- |
| B1 | 2.2 nM |

Biological target: wt MPER peptide (HIV-1)
Remark: another data set of the same source

| Binder | koff |
| --- | --- |
| B1 | 0.00174 s⁻¹ |

Biological target: wt MPER peptide (HIV-1)
Remark: another data set of the same source

| Binder | Kd |
| --- | --- |
| B2 | 145 nM |
| B3 | 131 nM |
| B4 | 2.57 nM |
| B5 | 5.12 nM |
| B6 | 79.6 nM |
| B7 | 3.94 nM |
| B8 | 2.77 nM |
| B9 | 5.49 nM |
| B10 | 29.5 nM |
| B11 | 353 nM |

Biological target: wt MPER peptide (HIV-1)
Remark: another data set of the same source

| Binder | koff |
| --- | --- |
| B2 | 0.0105 s⁻¹ |
| B3 | 0.0105 s⁻¹ |
| B4 | 0.00106 s⁻¹ |
| B5 | 0.00112 s⁻¹ |
| B6 | 0.00681 s⁻¹ |
| B7 | 0.0034 s⁻¹ |
| B8 | 0.00055 s⁻¹ |
| B9 | 0.00193 s⁻¹ |
| B10 | 0.00435 s⁻¹ |
| B11 | 0.0224 s⁻¹ |
